Results on 2 molecules are retold here after publication doi:10.1101/444570 (bioRxiv, 2018).

Assay [1] deals with COMA complex (Ame1/Okp1/Ctf19/Mcm21) (S. cerevisiae (budding yeast), UniProt P38313;P53298;Q02732;Q06675). Put plainly: cross-linking.
The target of assay [2] is Ctf19/Mcm21 heterodimer (wild type) (S. cerevisiae (budding yeast), UniProt Q02732;Q06675). As to the kind of experiment: pull-down.
Sequence of Ctf19/Mcm21 heterodimer (wild type) (Q02732 whole entry, chain 1 of 2): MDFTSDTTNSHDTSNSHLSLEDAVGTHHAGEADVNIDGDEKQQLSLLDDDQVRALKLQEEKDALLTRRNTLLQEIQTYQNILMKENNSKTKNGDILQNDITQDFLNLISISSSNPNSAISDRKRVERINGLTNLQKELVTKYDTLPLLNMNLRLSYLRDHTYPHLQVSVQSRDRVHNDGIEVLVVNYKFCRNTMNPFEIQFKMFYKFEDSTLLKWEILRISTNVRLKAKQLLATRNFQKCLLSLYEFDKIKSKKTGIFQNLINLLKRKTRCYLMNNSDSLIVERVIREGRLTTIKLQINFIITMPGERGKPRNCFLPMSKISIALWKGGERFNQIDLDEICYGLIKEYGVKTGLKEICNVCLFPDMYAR
Sequence of Ctf19/Mcm21 heterodimer (wild type) (Q06675 whole entry, chain 2 of 2): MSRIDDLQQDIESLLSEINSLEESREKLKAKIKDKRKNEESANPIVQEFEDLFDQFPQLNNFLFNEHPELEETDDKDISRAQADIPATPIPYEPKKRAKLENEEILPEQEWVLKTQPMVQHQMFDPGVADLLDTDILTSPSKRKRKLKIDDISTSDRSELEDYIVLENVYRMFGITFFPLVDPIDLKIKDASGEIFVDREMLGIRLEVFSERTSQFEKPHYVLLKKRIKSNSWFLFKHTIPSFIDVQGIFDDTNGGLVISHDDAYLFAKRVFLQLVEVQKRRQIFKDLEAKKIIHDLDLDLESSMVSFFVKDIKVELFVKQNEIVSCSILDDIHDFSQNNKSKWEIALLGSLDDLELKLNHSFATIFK

Sequence of COMA complex (Ame1/Okp1/Ctf19/Mcm21) (P38313 whole entry, chain 1 of 4): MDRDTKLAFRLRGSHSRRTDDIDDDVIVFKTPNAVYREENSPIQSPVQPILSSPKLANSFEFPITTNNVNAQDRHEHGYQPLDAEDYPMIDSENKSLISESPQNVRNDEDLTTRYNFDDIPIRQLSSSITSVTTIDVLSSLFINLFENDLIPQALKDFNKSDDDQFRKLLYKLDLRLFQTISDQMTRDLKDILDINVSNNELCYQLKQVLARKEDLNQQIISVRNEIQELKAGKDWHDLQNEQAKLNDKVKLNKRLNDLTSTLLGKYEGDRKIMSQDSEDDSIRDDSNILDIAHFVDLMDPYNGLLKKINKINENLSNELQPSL
Sequence of COMA complex (Ame1/Okp1/Ctf19/Mcm21) (P53298 whole entry, chain 2 of 4): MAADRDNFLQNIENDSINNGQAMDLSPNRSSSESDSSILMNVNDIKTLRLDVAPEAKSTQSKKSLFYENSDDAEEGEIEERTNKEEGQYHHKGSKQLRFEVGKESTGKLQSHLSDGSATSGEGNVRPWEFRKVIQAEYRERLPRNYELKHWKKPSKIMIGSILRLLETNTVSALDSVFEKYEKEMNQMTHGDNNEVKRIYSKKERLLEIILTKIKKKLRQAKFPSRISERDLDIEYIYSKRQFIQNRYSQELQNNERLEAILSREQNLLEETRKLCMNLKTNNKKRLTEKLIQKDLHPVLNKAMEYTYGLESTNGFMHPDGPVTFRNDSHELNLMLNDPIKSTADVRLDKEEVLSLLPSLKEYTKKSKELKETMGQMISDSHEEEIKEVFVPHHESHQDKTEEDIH
Sequence of COMA complex (Ame1/Okp1/Ctf19/Mcm21) (Q02732 whole entry, chain 3 of 4): as the sequence (Q02732 whole entry, chain 1 of 2) above
Sequence of COMA complex (Ame1/Okp1/Ctf19/Mcm21) (Q06675 whole entry, chain 4 of 4): as the sequence (Q06675 whole entry, chain 2 of 2) above

B1: Sli15-2xStrep/Ipl1 (wild type, not phosphorylated) (complex)
chain 1: MDWAIKAARKKTQRKPGSTRSIIETLDDLNNLTTDAHSEINQRLYESSEWLRNNVYMNTLKYEDKKMEESLISPENTHNKMDVEFPKMKGEYELSNSQNDAAKDVTKTPRNGLHNDKSITPKSLRRKEVTEGMNRFSIHDTNKSPVEPLNSVKVDANESEKSSPWSPYKVEKVLRESSKTSESPINTKRFDNQTWAAKEEMENEPILQALKKAESVKVKPPPNSGIARSQRRSNMFVPLPNKDPLIIQHIPPTKSSGSIPKVRTVKESPIAFKKKSTINSPAIRAVENSDTAGSTKASSVFDRLSSIPTKSFENKISRGNVGHKYSSSSIDLTGSPMKKVSQKFKSINSTDTDMQEALRDIFSVKNKITKNNSPKGKNSRKSSIPRFDKTSLKLTTHKKLAIIAEQKKKSKHSSDVHKTGSRPHSISPTKISVDSSSPSKEVKNYYQSPVRGYLRPTKASISPNKNKNLTTSQTPHRLKIKEKTLRKLSPNIADISKPESRKSKNYRLTNLQLLPPAEAERDDLKKKFDKRLSGIMRSQQEHHRRKQEKQKRMSHLEQDLKKQTSFSNDYKDIRLKESLAPFDNHVRDTINKNTAFSTDNILATINTVDHREIIGNVTPKIASVNDSLPEINTDSEDEASVTLAAWAKSPYLQEQLIRQQDINPQTIFGPIPPLHTDEIFPNPRLNRLKPRQIVPKRS
chain 2: MQRNSLVNIKLNANSPSKKTTTRPNTSRINKPWRISHSPQQRNPNSKIPSPVREKLNRLPVNNKKFLDMESSKIPSPIRKATSSKMIHENKKLPKFKSLSLDDFELGKKLGKGKFGKVYCVRHRSTGYICALKVMEKEEIIKYNLQKQFRREVEIQTSLNHPNLTKSYGYFHDEKRVYLLMEYLVNGEMYKLLRLHGPFNDILASDYIYQIANALDYMHKKNIIHRDIKPENILIGFNNVIKLTDFGWSIINPPENRRKTVCGTIDYLSPEMVESREYDHTIDAWALGVLAFELLTGAPPFEEEMKDTTYKRIAALDIKMPSNISQDAQDLILKLLKYDPKDRMRLGDVKMHPWILRNKPFWENKRL
Regarding B1, the binding result in assay [1] is listed as “binds”.

B2: Sli15∆N2-370-2xStrep/Ipl1 (complex)
chain 1: MNNSPKGKNSRKSSIPRFDKTSLKLTTHKKLAIIAEQKKKSKHSSDVHKTGSRPHSISPTKISVDSSSPSKEVKNYYQSPVRGYLRPTKASISPNKNKNLTTSQTPHRLKIKEKTLRKLSPNIADISKPESRKSKNYRLTNLQLLPPAEAERDDLKKKFDKRLSGIMRSQQEHHRRKQEKQKRMSHLEQDLKKQTSFSNDYKDIRLKESLAPFDNHVRDTINKNTAFSTDNILATINTVDHREIIGNVTPKIASVNDSLPEINTDSEDEASVTLAAWAKSPYLQEQLIRQQDINPQTIFGPIPPLHTDEIFPNPRLNRLKPRQIVPKRS
chain 2: MQRNSLVNIKLNANSPSKKTTTRPNTSRINKPWRISHSPQQRNPNSKIPSPVREKLNRLPVNNKKFLDMESSKIPSPIRKATSSKMIHENKKLPKFKSLSLDDFELGKKLGKGKFGKVYCVRHRSTGYICALKVMEKEEIIKYNLQKQFRREVEIQTSLNHPNLTKSYGYFHDEKRVYLLMEYLVNGEMYKLLRLHGPFNDILASDYIYQIANALDYMHKKNIIHRDIKPENILIGFNNVIKLTDFGWSIINPPENRRKTVCGTIDYLSPEMVESREYDHTIDAWALGVLAFELLTGAPPFEEEMKDTTYKRIAALDIKMPSNISQDAQDLILKLLKYDPKDRMRLGDVKMHPWILRNKPFWENKRL
For B2, the binding result in assay [2] is reported as “binds”.
